From the supplement of paper PMC5998384 come the findings set out here.

The subject of data set [1] is HeLa Kyoto. Briefly: solubility in G1/S (NP-40 vs SDS abundance) (log2 ratio); higher = more soluble. Particulars: cell cycle stage: G1/S.
For data set [2], the system named is HeLa Kyoto. Briefly: melting temperature (median over replicates), in situ; higher = more thermally stable.
The test system of data set [3] is HeLa Kyoto. Description: solubility change mitosis vs G1/S (difference of NP-40 vs SDS log2 ratios) (log2 ratio difference); higher = more soluble in mitosis.
The test system of data set [4] is HeLa Kyoto. Briefly: thermal stability score vs G1/S (z-score of summed log2 fold changes over temperatures); higher = more thermally stable than in G1/S.
The mark [5] stands for this setting: cell cycle stage: early G1 (4.5 h after nocodazole release).
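Throughout, for melting temperature (median over replicates), in situ: HeLa Kyoto cells synchronized by double thymidine or nocodazole block, proteins quantified by TMT10plex mass spectrometry, three independent biological replicates.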
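Throughout, for solubility change mitosis vs G1/S (difference of NP-40 vs SDS log2 ratios): synchronized HeLa Kyoto cells (double thymidine block for G1/S, nocodazole release for mitosis), protein amounts in NP-40 versus SDS lysates quantified by mass spectrometry, three biological replicates.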
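Throughout, for solubility in G1/S (NP-40 vs SDS abundance): HeLa Kyoto cells arrested at G1/S by double thymidine block, proteins quantified by TMT10plex mass spectrometry in mild NP-40 versus SDS extracts, three biological replicates.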
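Throughout, for thermal stability score vs G1/S (z-score of summed log2 fold changes over temperatures): synchronized HeLa Kyoto cells, proteins quantified by TMT10plex mass spectrometry, three biological replicates, mitosis taken 0.5 h after nocodazole release, G1/S directly after double thymidine block.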

Regarding “MEQLSDEEIDHGAEEDSDKEDQDLDKMFGAWLGELDKLTQSLDSDKPMEPVKRSPLRQETNMANFSYRFSIYNLNEALNQGETVDLDALMADLCSIEQELSSIGSGNSKRQITETKATQKLPVSRHTLKHGTLKGLSSSSNRIAKPSHASYSLDDVTAQLEQASLSMDEAAQQSVLEDTKPLVTNQHRRTASAGTVSDAEVHSISNSSHSSITSAASSMDSLDIDKVTRPQELDLTHQGQPITEEEQAAKLKAEKIRVALEKIKEAQVKKLVIRVHMSDDSSKTMMVDERQTVRQVLDNLMDKSHCGYSLDWSLVETVSELQMERIFEDHENLVENLLNWTRDSQNKLIFMERIEKYALFKNPQNYLLGKKETAEMADRNKEVLLEECFCGSSVTVPEIEGVLWLKDDGKKSWKKRYFLLRASGIYYVPKGKAKVSRDLVCFLQLDHVNVYYGQDYRNKYKAPTDYCLVLKHPQIQKKSQYIKYLCCDDVRTLHQWVNGIRIAKYGKQLYMNYQEALKRTESAYDWTSLSSSSIKSGSSSSSIPESQSNHSNQSDSGVSDTQPAGHVRSQSIVSSVFSEAWKRGTQLEESSKARMESMNRPYTSLVPPLSPQPKIVTPYTASQPSPPLPPPPPPPPPPPPPPPPPPPPLPSQSAPSAGSAAPMFVKYSTITRLQNASQHSGALFKPPTPPVMQSQSVKPQILVPPNGVVPPPPPPPPPPTPGSAMAQLKPAPCAPSLPQFSAPPPPLKIHQVQHITQVAPPTPPPPPPIPAPLPPQAPPKPLVTIPAPTSTKTVAPVVTQAAPPTPTPPVPPAKKQPAFPASYIPPSPPTPPVPVPPPTLPKQQSFCAKPPPSPLSPVPSVVKQIASQFPPPPTPPAMESQPLKPVPANVAPQSPPAVKAKPKWQPSSIPVPSPDFPPPPPESSLVFPPPPPSPVPAPPPPPPPTASPTPDKSGSPGKKTSKTSSPGGKKPPPTPQRNSSIKSSSGAEHPEPKRPSVDSLVSKFTPPAESGSPSKETLPPPAAPPKPGKLNLSGVNLPGVLQQGCVSAKAPVLSGRGKDSVVEFPSPPSDSDFPPPPPETELPLPPIEIPAVFSGNTSPKVAVVNPQPQQWSKMSVKKAPPPTRPKRNDSTRLTQAEISEQPTMATVVPQVPTSPKSSLSVQPGFLADLNRTLQRKSITRHGSLSSRMSRAEPTATMDDMALPPPPPELLSDQQKAGYGGSHISGYATLRRGPPPAPPKRDQNTKLSRDW [RAPH1]”, in the data set with HeLa Kyoto [1], the “solubility in G1/S (log2)” value amounted to 0.0855. For the same sequence, the values for the melting temperature in the data set with HeLa Kyoto [2] (cell cycle stage: G1/S) and with HeLa Kyoto [2] (cell cycle stage: mitosis) were 52 °C and 52.3 °C, respectively. Also, the “solubility change mitosis (log2)” value with HeLa Kyoto [3] is -0.187. Further, the thermal stability score in the data set on HeLa Kyoto [4] (setting [5]) is -1.35; in the data set with HeLa Kyoto [4] (cell cycle stage: mitosis) it was -0.404.
For “MEQPGQDPTSDDVMDSFLEKFQSQPYRGGFHEDQWEKEFEKVPLFMSRAPSEIDPRENPDLACLQSIIFDEERSPEEQAKTYKDEGNDYFKEKDYKKAVISYTEGLKKKCADPDLNAVLYTNRAAAQYYLGNFRSALNDVTAARKLKPCHLKAIIRGALCHLELKHFAEAVNWCDEGLQIDAKEKKLLEMRAKADKLKRIEQRDVRKANLKEKKERNQNEALLQAIKARNIRLSEAACEDEDSASEGLGELFLDGLSTENPHGARLSLDGQGRLSWPVLFLYPEYAQSDFISAFHEDSRFIDHLMVMFGETPSWDLEQKYCPDNLEVYFEDEDRAELYRVPAKSTLLQVLQHQRYFVKALTPAFLVCVGSSPFCKNFLRGRKVYQIR [TTC4]”, in the data set on HeLa Kyoto [1], the “solubility in G1/S (log2)” value came to 0.484. Moreover, the melting temperature with HeLa Kyoto [2] (cell cycle stage: G1/S) was found to be 49.8 °C; in the data set with HeLa Kyoto [2] (cell cycle stage: mitosis), 49.4 °C. In the data set on HeLa Kyoto [3], the “solubility change mitosis (log2)” value is -0.0862. The figures for the thermal stability score in the data set on HeLa Kyoto [4] (setting [5]) and with HeLa Kyoto [4] (cell cycle stage: mitosis) were -0.209 and 0.287, respectively.
For the sequence “MEQPKGVDWTVIILTCQYKDSVQVFQRELEVRQKREQIPAGTLLLAVEDPEKRVGSGGATLNALLVAAEHLSARAGFTVVTSDVLHSAWILILHMGRDFPFDDCGRAFTCLPVENPEAPVEALVCNLDCLLDIMTYRLGPGSPPGVWVCSTDMLLSVPANPGISWDSFRGARVIALPGSPAYAQNHGVYLTDPQGLVLDIYYQGTEAEIQRCVRPDGRVPLVSGVVFFSVETAERLLATHVSPPLDACTYLGLDSGARPVQLSLFFDILHCMAENVTREDFLVGRPPELGQGDADVAGYLQSARAQLWRELRDQPLTMAYVSSGSYSYMTSSASEFLLSLTLPGAPGAQIVHSQVEEQQLLAAGSSVVSCLLEGPVQLGPGSVLQHCHLQGPIHIGAGCLVTGLDTAHSKALHGRELRDLVLQGHHTRLHGSPGHAFTLVGRLDSWERQGAGTYLNVPWSEFFKRTGVRAWDLWDPETLPAEYCLPSARLFPVLHPSRELGPQDLLWMLDHQEDGGEALRAWRASWRLSWEQLQPCLDRAATLASRRDLFFRQALHKARHVLEARQDLSLRPLIWAAVREGCPGPLLATLDQVAAGAGDPGVAARALACVADVLGCMAEGRGGLRSGPAANPEWMRPFSYLECGDLAAGVEALAQERDKWLSRPALLVRAARHYEGAGQILIRQAVMSAQHFVSTEQVELPGPGQWVVAECPARVDFSGGWSDTPPLAYELGGAVLGLAVRVDGRRPIGARARRIPEPELWLAVGPRQDEMTVKIVCRCLADLRDYCQPHAPGALLKAAFICAGIVHVHSELQLSEQLLRTFGGGFELHTWSELPHGSGLGTSSILAGTALAALQRAAGRVVGTEALIHAVLHLEQVLTTGGGWQDQVGGLMPGIKVGRSRAQLPLKVEVEEVTVPEGFVQKLNDHLLLVYTGKTRLARNLLQDVLRSWYARLPAVVQNAHSLVRQTEECAEGFRQGSLPLLGQCLTSYWEQKKLMAPGCEPLTVRRMMDVLAPHVHGQSLAGAGGGGFLYLLTKEPQQKEALEAVLAKTEGLGNYSIHLVEVDTQGLSLKLLGTEASTCCPFP [FUK]”, the “solubility in G1/S (log2)” value in the data set with HeLa Kyoto [1] is -0.0525. The values for the melting temperature in the data set with HeLa Kyoto [2] (cell cycle stage: G1/S) and in the data set on HeLa Kyoto [2] (cell cycle stage: mitosis) were 56.6 °C and 54.8 °C, respectively. Besides, the “solubility change mitosis (log2)” value in the data set with HeLa Kyoto [3] is -0.182. Besides, the results for the thermal stability score with HeLa Kyoto [4] (setting [5]) and with HeLa Kyoto [4] (cell cycle stage: mitosis) were -0.477 and -1.02, respectively.
On to “MERAAPSRRVPLPLLLLGGLALLAAGVDADVLLEACCADGHRMATHQKDCSLPYATESKECRMVQEQCCHSQLEELHCATGISLANEQDRCATPHGDNASLEATFVKRCCHCCLLGRAAQAQGQSCEYSLMVGYQCGQVFQACCVKSQETGDLDVGGLQETDKIIEVEEEQEDPYLNDRCRGGGPCKQQCRDTGDEVVCSCFVGYQLLSDGVSCEDVNECITGSHSCRLGESCINTVGSFRCQRDSSCGTGYELTEDNSCKDIDECESGIHNCLPDFICQNTLGSFRCRPKLQCKSGFIQDALGNCIDINECLSISAPCPIGHTCINTEGSYTCQKNVPNCGRGYHLNEEGTRCVDVDECAPPAEPCGKGHRCVNSPGSFRCECKTGYYFDGISRMCVDVNECQRYPGRLCGHKCENTLGSYLCSCSVGFRLSVDGRSCEDINECSSSPCSQECANVYGSYQCYCRRGYQLSDVDGVTCEDIDECALPTGGHICSYRCINIPGSFQCSCPSSGYRLAPNGRNCQDIDECVTGIHNCSINETCFNIQGGFRCLAFECPENYRRSAATLQQEKTDTVRCIKSCRPNDVTCVFDPVHTISHTVISLPTFREFTRPEEIIFLRAITPPHPASQANIIFDITEGNLRDSFDIIKRYMDGMTVGVVRQVRPIVGPFHAVLKLEMNYVVGGVVSHRNVVNVHIFVSEYWF [FBLN1]”, for which, in the data set with HeLa Kyoto [1], the “solubility in G1/S (log2)” value was -0.102. In addition, the melting temperature in the data set with HeLa Kyoto [2] (cell cycle stage: G1/S) came out at 54 °C; in the data set with HeLa Kyoto [2] (cell cycle stage: mitosis), 55.4 °C. Moreover, the “solubility change mitosis (log2)” value in the data set on HeLa Kyoto [3] is -0.045. Also, the results for the thermal stability score with HeLa Kyoto [4] (setting [5]) and with HeLa Kyoto [4] (cell cycle stage: mitosis) were 1.49 and 0.0681, respectively.
